# ± gives the uncertainty stated by the source.
# Test: protein stability index of a GFP-peptide fusion (yeast GPS) (PSI 1-4); higher = more stable; sorted into four equal gates, so the index is relative within each strain
# Method in brief: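 Plasmids in a pooled yeast library fused tiled 17-residue yeast protein peptides downstream of GFP and also expressed Cherry. Mid-log cultures grown without leucine were sorted into four equal gates by GFP/Cherry fluorescence ratio. Each gate's plasmids were PCR-amplified and Illumina-sequenced, and reads were matched to strains by barcodes. The protein stability index is derived by multiplying each gate's read frequency by its gate number and summing the results.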
Sequence,protein stability index (doa10∆),protein stability index (pdr5∆),protein stability index (san1∆),protein stability index (ubr1∆)
CRKLSFSDKVNALWILV [ITC1],1.72 ± 0.075,1.8 ± 0.044,1.5 ± 0.1,1.85 ± 0.051
NMVLENVKELWTEKKGK [SMD2],2.91 ± 0.11,2.67 ± 0.098,2.47 ± 0.14,3.3 ± 0.065
LPLQAQQQLYGGNNNNN [SWI1],3.05 ± 0.064,2.92 ± 0.07,2.68 ± 0.068,2.56 ± 0.045
EDDDNEQHEEKAAEGEE [QCR6],3.06 ± 0.083,2.95 ± 0.12,2.95 ± 0.24,3.2 ± 0.072
IELVVTEKEEAVAKAAE [RPL17A],3.41 ± 0.064,3.33 ± 0.05,3.27 ± 0.04,3.25 ± 0.047
MENEFFKVQELLHSKPS [NAS6],2.2 ± 0.14,2.02 ± 0.082,2.68 ± 0.14,2.3 ± 0.085
EVSKDLIAVYYSFGGLL [RPB8],2.55 ± 0.051,2.7 ± 0.067,2.46 ± 0.079,2.72 ± 0.057
FIRKYINQKALRKIQAL [GAL11],2.38 ± 0.25,1.49 ± 0.22,1.79 ± 0.23,–
PRLLGPQLSKAGKFPTP [RPL1A],2.86 ± 0.066,2.8 ± 0.057,2.74 ± 0.052,2.64 ± 0.035
EFLYPHLNFPNVKFLRI [SNF12],2.21 ± 0.19,2.67 ± 0.27,–,3.15 ± 0.1
LNAITLDGDRADKRGVL [SMC3],2.94 ± 0.15,3.1 ± 0.17,–,3.03 ± 0.097
FTTNKSKDVSRLLSALG [SRP21],3.03 ± 0.2,2.41 ± 0.28,–,2.8 ± 0.081
LNEIELDNLKLKELRID [GRR1],3.28 ± 0.097,3.09 ± 0.11,3.18 ± 0.054,2.85 ± 0.092
WIWDMNVHGSLEPFLLM [BRR2],1.61 ± 0.06,2.08 ± 0.078,1.72 ± 0.2,1.81 ± 0.077
VALTSFLGYKAGMTTIV [RPL3],2.96 ± 0.11,2.75 ± 0.077,2.69 ± 0.078,2.85 ± 0.094
VPVTKLGRLVKAGKITT [RPS2],3.13 ± 0.091,3 ± 0.15,3.03 ± 0.11,3.45 ± 0.078
RARVKAFPKDDRSKPVA [RPL3],2.85 ± 0.1,3.12 ± 0.1,3.4 ± 0.047,3.15 ± 0.083
KTLSLKSMASAFGVSVA [RPN7],–,–,–,1.21 ± 0.13
KEEGLQQFNLHEILSEP [MED1],2.97 ± 0.15,3.21 ± 0.15,3.12 ± 0.12,2.62 ± 0.12
NWWHSEFEIPVSFNGFK [BRR2],1.49 ± 0.098,1.32 ± 0.068,1.14 ± 0.17,1.34 ± 0.058
TSNKEGFNSIWKIPQND [SSN2],3.29 ± 0.26,3.72 ± 0.3,3.45 ± 0.15,–
KESQLPRIQRADPVALY [RPB5],2.32 ± 0.069,2.63 ± 0.058,2.5 ± 0.089,2.59 ± 0.048
NSYWLIILLGVLEDCRH [ITC1],1.42 ± 0.061,1.53 ± 0.048,2.44 ± 0.083,2.36 ± 0.057
LFEIYRDLGDDRVFNVP [YJR042W/NUP85],2.87 ± 0.11,3.2 ± 0.1,2.75 ± 0.11,2.89 ± 0.097
KVAKKRLGSFTRAKAKV [RPL36A],–,2.64 ± 0.21,3.1 ± 0.16,2.86 ± 0.29
ILNELQPNARALERYDE [SMC1],3.3 ± 0.22,3.61 ± 0.11,3.27 ± 0.078,3.49 ± 0.086
TRFPPAVFYTPKELGGL [PRP8],3.19 ± 0.076,3.08 ± 0.07,3.25 ± 0.068,3.04 ± 0.063

# Reference: the supplement of paper PMC9732359
